Measurements from patent US20090291083A1, “BARB4 TARGET, ANTIBODY DESIGNATED BARB4, BARB4 RELATED ANTIBODIES, AND METHODS OF MAKING AND USING SAME” (PATRYS LIMITED, priority 2008, published 2009).

Tests used:
Malignant Tissues: Colon = test: Immunohistochemistry (IHC) with biotinylated BARB4 on malignant tissue; format: binding, human; conditions: positive/negative
Description: (§1) Immunohistochemistry with human IgG on human tissue naturally results in high background staining. Accordingly, BARB4 was labeled with biotin to reduce background.
(§2) BARB4 antibody and an unrelated commercial IgG control (Chrompure IgG, Dianova) where labelled with “EZ-Link Maleimide-PEO Solid Phase Biotinylation Kit” from Pierce (Cat-# 21930) and Immunohistochemistry was initiated on different tumor tissue. Parrafin embedded tissue was first deparaffinized by treatment with Xylene 1 for 5 min, Xylene 2 for 5 min, followed by 100% Ethanol 1 for 5 min, 100% Ethanol 2 for 5 min, 70 ml Methanol+500 μl H2O2 for 7 min, 90% Ethanol 1 for 3 min, 90% Ethanol 2 for 3 min, 80% Ethanol 1 for 3 min, 80% Ethanol 2 for 3 min, 70% Ethanol 1 for 3 min, 70% Ethanol 2 for 3 min, and then washed three times with distilled H2O. (1 and 2 mean that the tissues were treated 2 times with the same alcohol, one after the another, in two different tanks.) Tissue was then heated in Citric acid, pH 5,5 in a water-bath at 99.9° C. for 20 min, placed in Tris/NaCl (Tris, 0.6 g/l and NaCl 8.1 g/l, pH 7.4) for 5 min, block with 0.5% BSA in PBS for 60 min, and then washed three times with Tris/NaCl (Tris, 0.6 g/l and NaCl 8.1 g/l, pH 7.4). Primary antibody (150 μl per microscope slide) was added, or a negative control biotinylated isotype matched control human antibody (Chrompure IgG, Dianova, Germany) or a positive controlanti-cytokeratin antibody, and incubated for 30 min in a humidified chamber at 37° C. Tissue was washed three times with Tris/NaCl (Tris, 0.6 g/l and NaCl 8.1 g/l, pH 7.4). Secondary antibody: (150 […]) was subsequently added and incubated for 30 min in a humidified chamber at room temperature (for biotinylated antibodies: NeurtrAvidin 1:100 in PBS), washed three times with Tris/NaCl (Tris, 0.6 g/l and NaCl 8.1 g/l, pH7.4), placed in PBS for 10 min. Tiusse was subsequently incubated with diaminobenzidine (0.05%)-hydrogen peroxide (0.02%) (150 μl per microscope slide) (Sigma, Taufkirchen, München, Germany) for 10 min, washed three times with H2O, washed once with distilled H2O, incubated with hematoxylin/eosin for 5 min, and placed under running tap water 10-15 min. Tissue was then washed again with distilled H2O, and the slides covered with Aquatex (Merck Bioscience).

Malignant Tissues: Lung = test: as above; format: binding, human; conditions: positive/negative
Description: as §1, §2

[1] = tested on: Malignant Tissues: Stomach; test: as above; format: binding, human; conditions: positive/negative
Description: as §1, §2

[2] = tested on: Malignant Tissues: Pancreas; test: as above; format: binding, human; conditions: positive/negative
Description: as §1, §2

[3] = tested on: Malignant Tissues: Melanoma; test: as above; format: binding, human; conditions: Metastases of malignant melanoma, positive/negative
Description: as §1, §2

[4] = tested on: Malignant Tissues: Esophagus; test: as above; format: binding, human; conditions: positive/negative
Description: as §1, §2

[5] = tested on: stomach cancer cells (23132/87); test: FACS analysis of tumor cell binding; conditions: 20 min on ice
Description: (§3) To analyze tumor cell binding, pancreas cancer cells (BXPC-3), stomach cancer cells (23132/87), lung carcinoma cells (A549) and malignant melanoma cells (HTB-69 and CRL-1424) were grown to subconfluency in complete medium, detached with Trypsin/EDTA and incubated on ice for 1 h for recreation. Tumor cells were subsequently incubated on ice with BARB4 antibody (diluted in PBS containing 0.01% sodium azide), or human isotype-matched control antibody (Chrompure human IgG, Dianova, Hamburg, Germany) for 20 min on ice. Following incubation, cells were incubated with a FITC-labeled rabbit anti-human IgG antibody (1:50, Dako, Germany) for 20 min on ice, and cells were analyzed by flow cytometry (FACScan; Becton Dickinson, USA).

[6] = tested on: malignant melanoma cells (HTB-69); test: FACS analysis of tumor cell binding; conditions: 20 min on ice
Description: as §3

[7] = tested on: malignant melanoma cells (CRL-1424); test: FACS analysis of tumor cell binding; conditions: 20 min on ice
Description: as §3

BxPC-3 = test: FACS analysis of cell surface binding, BARB4 and commercial TAF 15 antibody; parameters: species or system human; conditions: BARB4 100 ug/ml, TAF 15 antibody 25 μg/ml
Description: (§4) To further validate BARB4 target protein TAF 15, BARB4 and a commercial TAF 15 antibody (anti-human TAFII p68, Santa Cruz Biotechnology, sc-81121) were analyzed for binding to BxPC-3, HEK 293, A549 and HeLa cell lines. In brief, cells were trypsinized with cell dissociation solution (Sigma C5789), resuspended in complete medium (RPMI 1640, PAA, E15-039, 10% Fetal bovine serum, PAA, A15-151 and 1% Glutamine, PAA, M11-004) and set on 2×10^5/ml. After 30 minutes on ice, cells were dispersed at 1 ml per FACS-tube and washed once with ice-cold PBS by centrifugation with 500 g and 4° C. Staining was done with BARB4 (100 ug/ml) or the commercial TAF 15 (25 μg/ml) IgG antibodies, control IgGs (IgG lambda, or mouse IgG), or without antibody in 200 μl PBS. Cells were incubated with 25 μg/ml antibody in 100 μl for 30 minutes on ice, then washed with ice cold PBS and secondary antibody (anti mouse IgG-FITC, dianova 115-095-008) was applied at a dilution of 1:50 in 200 μl per tube. After another 30 minutes of incubation in the dark, cells were washed twice with PBS and analyzed by FACS. […] BARB4 target protein TAF 15 validation was then analyzed by immunoprecipitation of MKNcell extracts with BARB4 and subsequent Western blotting with either BARB4 or anti-TAF 15 antibodies (Biomol, A300-308A; or Aviva, ARP30111_T100).

A549 = test: as above; parameters: species or system human; conditions: BARB4 100 ug/ml, TAF 15 antibody 25 μg/ml
Description: as §4

B1: BARB4: human IgG antibody produced by hybridoma DSMZ Deposit No. DSM ACC2876; heavy chain SEQ ID NOs:1, 3, 5, 7, light chain SEQ ID NO:9 (antibody, V domains shown)
VH: QVQLVESGGGVVQPGRSLRLSCAASGFRFTTHGMHWVRQAPGKGLEWVAVISYNGRNKYYADYVNGRFTISRDDSRDTVFLQMNSLRPEDTAMYYCAKVRGDGYGDYGYFDYWGHGTLVSVSS
VL: QSALTQPRSVSGSPGQSVTISCTGTYNYVSWYQQHPGKAPKLMIFDVSRRSSGVPDRFSGSKSGNTASLTISGLQAEDEADYYCCSYGGTYLYVFGTGTTVTVLGQ
In the case of B1, the “Barb 4 +/−” value (Malignant Tissues: Colon; Adeno) is reported as 1/0, the “Barb 4 +/−” value (Malignant Tissues: Colon; Liver Metastasis) is reported as 2/0 and the “Barb 4 +/−” value (Malignant Tissues: Lung; Carcinoid (neuron-endocrine)) is reported as 1/0. The “Barb 4 +/−” value (Malignant Tissues: Lung; Lymph Node Metastasis) was 1/0, the “Barb 4 +/−” value (Malignant Tissues: Lung; Squamous cell) was 2/0 and the “Barb 4 +/−” value ([1]; Adeno (Cardio, intestinal)) was 1/0. For the same molecule, the “Barb 4 +/−” value ([1]; Adeno (intestinal)) was 2/0, the “Barb 4 +/−” value ([2]; Adeno) was 0/1 and the “Barb 4 +/−” value ([2]; Lymph Node Metastasis) was 4/0. The “Barb 4 +/−” value [3] was 5/0, the “Barb 4 +/−” value ([4]; Adeno (Barrett Carcinoma)) was 1/0 and the “Barb 4 +/−” value ([4]; Squamous cell) was 1/0. For the same molecule, the “tumor cell binding (FACS)” value [5] was “binds”, the “tumor cell binding (FACS)” value [6] was “binds” and the “tumor cell binding (FACS)” value [7] was “binds”. For the same molecule, the “FACS binding to the cell surface” value (BxPC-3) was “binding” and the “FACS binding to the cell surface” value (A549) was “binding”.
